Here are results for 1 molecule from paper PMC5941315.

The data set has as its target MMP9 full length (UniProt P14780 20-707). The data set can be described thus: fluorescence polarization. (In general: In fluorescence polarisation assays a small probe gives low polarisation when free and higher when bound to something large.)

MMP9 full length, sequence (P14780 20-707): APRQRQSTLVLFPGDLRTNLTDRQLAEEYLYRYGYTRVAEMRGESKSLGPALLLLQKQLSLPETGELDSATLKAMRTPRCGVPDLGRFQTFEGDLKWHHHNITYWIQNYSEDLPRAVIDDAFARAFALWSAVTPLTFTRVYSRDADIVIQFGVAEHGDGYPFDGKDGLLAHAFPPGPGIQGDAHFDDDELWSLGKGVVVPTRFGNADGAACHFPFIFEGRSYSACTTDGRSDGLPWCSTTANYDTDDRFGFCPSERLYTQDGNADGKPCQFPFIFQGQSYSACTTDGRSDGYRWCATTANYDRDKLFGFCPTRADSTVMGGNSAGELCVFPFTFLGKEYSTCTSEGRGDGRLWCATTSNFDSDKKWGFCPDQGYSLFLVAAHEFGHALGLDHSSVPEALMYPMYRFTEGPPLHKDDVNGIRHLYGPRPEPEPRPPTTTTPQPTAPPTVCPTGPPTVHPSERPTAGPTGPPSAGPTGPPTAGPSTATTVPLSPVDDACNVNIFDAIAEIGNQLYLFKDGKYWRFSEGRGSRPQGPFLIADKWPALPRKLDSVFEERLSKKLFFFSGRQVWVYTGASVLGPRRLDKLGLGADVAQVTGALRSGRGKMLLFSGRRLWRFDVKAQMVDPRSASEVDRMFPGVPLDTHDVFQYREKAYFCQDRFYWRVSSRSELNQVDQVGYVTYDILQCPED

Regarding ACGCCAATAACGCTATTCGAGCTCGAGACGGCGCGATCTC (ssDNA) [Scrambled 40-mer], the binding result is recorded as “binds”.
